Earlier results on one substance are cited in PMC10747851.

pKd: −log10 of the molar value.

The target of this data set is TfR (Homo sapiens) (UniProt P02786).
Chain of TfR (Homo sapiens) (P02786 89-760): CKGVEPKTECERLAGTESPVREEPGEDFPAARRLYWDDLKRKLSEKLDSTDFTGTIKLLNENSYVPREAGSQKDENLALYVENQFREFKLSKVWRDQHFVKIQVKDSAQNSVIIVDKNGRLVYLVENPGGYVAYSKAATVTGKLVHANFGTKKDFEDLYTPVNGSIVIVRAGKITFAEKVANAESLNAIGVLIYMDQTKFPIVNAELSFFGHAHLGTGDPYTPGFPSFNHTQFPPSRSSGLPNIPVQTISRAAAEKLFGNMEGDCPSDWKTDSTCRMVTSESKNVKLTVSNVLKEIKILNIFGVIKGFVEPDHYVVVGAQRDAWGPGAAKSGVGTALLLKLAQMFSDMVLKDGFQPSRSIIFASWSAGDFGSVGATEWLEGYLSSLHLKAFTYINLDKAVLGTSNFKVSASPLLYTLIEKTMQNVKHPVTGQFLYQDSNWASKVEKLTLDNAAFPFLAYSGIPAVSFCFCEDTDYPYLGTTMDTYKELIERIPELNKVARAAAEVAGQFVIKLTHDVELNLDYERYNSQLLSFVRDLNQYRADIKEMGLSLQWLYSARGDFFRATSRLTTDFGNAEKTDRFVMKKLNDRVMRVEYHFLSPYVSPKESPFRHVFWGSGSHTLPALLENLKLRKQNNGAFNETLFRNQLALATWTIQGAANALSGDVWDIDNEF

Broadly, the pKd is −log10 of the Kd, conventionally taken in molar units. As to T7 peptide, the negative-log Kd (pKd) is 8.00.
